The target of test [1] is T1, human CD25 (recombinant soluble) (human, UniProt P01589 22-240).
T1 construct: extracellular domain; bought protein; also called IL2-Rα; recombinant human IL2-Rα
T1 sequence (looked up): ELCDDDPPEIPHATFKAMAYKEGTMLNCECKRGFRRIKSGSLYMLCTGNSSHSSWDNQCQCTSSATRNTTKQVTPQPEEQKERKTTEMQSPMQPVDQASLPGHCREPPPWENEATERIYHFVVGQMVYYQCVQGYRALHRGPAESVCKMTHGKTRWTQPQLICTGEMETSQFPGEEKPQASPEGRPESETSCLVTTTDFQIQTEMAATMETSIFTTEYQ
The test can be described thus: competition ELISA on plate-coated CD25: competitor antibody titrated against biotinylated daclizumab, OD415. For orientation: An ELISA detects its analyte on a solid surface through an enzyme-linked reagent.

For test [2], the target named is T1, human CD25 (recombinant soluble). Described as above. The source holds these as a separate data set.
Test [3] deals with T2, recombinant human CD25 (IL2-Rα) (human, UniProt P01589 22-213, limits assumed).
T2 construct: Bought protein; also called recombinant human IL2-Rα; recombinant soluble human CD25
T2 sequence (looked up): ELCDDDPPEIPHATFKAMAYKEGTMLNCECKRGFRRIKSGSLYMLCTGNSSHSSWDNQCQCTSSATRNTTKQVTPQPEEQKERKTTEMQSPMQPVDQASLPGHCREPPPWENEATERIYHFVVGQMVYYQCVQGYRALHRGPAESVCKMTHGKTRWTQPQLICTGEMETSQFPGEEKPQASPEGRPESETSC
The test can be described thus: SPR (BIAcore), antibody captured by anti-human Fc, soluble human CD25 as analyte, n=3.
Protocol: (§1) For this capture approach, 30 μg/ml of GAHFc was immobilized to achieve a high response unit (20,000 RU) on each flow cell on the Research-grade CMS sensor chip using the BIAcore amine coupling reagents (N-ethyl-N′-dimethylamino-propylcarbodiimide, EDC; N-hydroxysuccinimide, NHS; and ethanolamine HCl, pH 8.5). […] A 3 min association phase of CD25 was followed by a 15 min injection of HBS-P running buffer (10 mM HEPES, 150 mM sodium chloride, 0.005% P-20 surfactant, pH 7.4) to monitor dissociation for each binding cycle, with a different CD25 concentration per cycle. The surface was regenerated with 20 mM HCl at 100 μl/min flow rate at the end of each cycle. […] Double referencing was applied in each analysis to eliminate background responses from reference surface and buffer only control (0 nM). […] Each set of experiments was performed three times to assess the standard deviation of the data.
(§2) Modified antibody proteins were tested for binding affinity using a surface plasmon resonance assay format in a BIAcore device. […] Recombinant soluble human CD25 was flowed over the sensor chip and changes in mass were detected.

For test [4], the target named is T2, recombinant human CD25 (IL2-Rα). The test is described as above. The source holds these as a separate data set.
Protocol: as §1, §2
The target in test [5] is T3, cynomolgous CD25-HA (cynomolgous monkey, UniProt H6WS54 22-240).
T3 construct: also called cynomolgous monkey CD25; cmCD25; not shown: exact C-terminal limit of the PDL BioPharma construct
T3 sequence: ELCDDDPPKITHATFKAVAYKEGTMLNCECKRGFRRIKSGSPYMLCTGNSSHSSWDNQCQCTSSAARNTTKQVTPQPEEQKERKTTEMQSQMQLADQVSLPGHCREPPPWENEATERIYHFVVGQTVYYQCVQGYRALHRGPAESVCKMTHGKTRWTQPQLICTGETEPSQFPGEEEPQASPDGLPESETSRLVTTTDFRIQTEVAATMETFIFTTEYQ
The test can be described thus: SPR (BIAcore), antibody captured by anti-human Fc, cynomolgous CD25-HA as analyte, n=3. (In general: In SPR one partner is held on a chip, and binding of the other changes the refractive index at the surface.)

Test [6] addresses T2, recombinant human CD25 (IL2-Rα). The test can be described thus: SPR (BIAcore), affinity benchmarked to DAC-HYP, n=3.
Protocol: Double referencing was applied in each analysis to eliminate background responses from reference surface and buffer only control (0 nM). […] Each set of experiments was performed three times to assess the standard deviation of the data.
Modified antibody proteins were tested for binding affinity using a surface plasmon resonance assay format in a BIAcore device. […] Recombinant soluble human CD25 was flowed over the sensor chip and changes in mass were detected. The data was interpreted to yield kₐ, kd and KD values for all the proteins tested.
Test [7] has the same target. The test can be described thus: direct-binding ELISA on plate-coated recombinant human IL2-Rα; EC50 benchmarked to DAC-HYP.
Protocol: MaxiSorp ELISA plates (Nunc Nalge International) were coated overnight at 4° C. with 100 μl/well of a 50 ng/ml solution of recombinant human IL2-Rα (R&D Systems or PeproTech, Inc., Rocky Hill, N.J.) in DPBS (Invitrogen Corporation), washed with Wash Buffer (PBS containing 0.1% Tween 20), and blocked for 30 min at room temperature with 200 μl/well of SuperBlock Blocking Buffer in TBS (Pierce Chemical Company). After washing with Wash Buffer, test antibodies (starting at 4 μg/ml and serially diluted 3-fold) in 100 μl/well of ELISA buffer (PBS containing 1% BSA and 0.1% Tween 20) were added in duplicate. After incubating the plates for 1 hr at room temperature, and washing with Wash Buffer, bound antibodies were detected using 100 μl/well of a 1:20,000 dilution of HRP-conjugated goat anti-human IgG (Southern Biotechnology Associates, Inc.) in ELISA buffer. After incubating for 1 hr at room temperature, and washing with Wash Buffer, color development was performed by adding 150 μl/well of TMB Peroxidase Substrate/Peroxidase Solution B (KPL, Inc.). After incubating for 8 min at room temperature, color development was stopped by adding 50 μl/well of 2 N sulfuric acid. Absorbance was read at 450 nm.
Test [8] deals with T4, CD25 (recombinant) (human, UniProt P01589 22-213, limits assumed).
T4 construct: bought protein; also called IL2-R alpha; IL2-Rα
T4 sequence (looked up): T2 sequence (looked up)
The experiment in a line: ELISA, relative to wild type.

The target in test [9] is T4, CD25 (recombinant). The experiment in a line: SPR (BIAcore).

Changes are numbered by the printed parent chain. Names and notes keep the numbering of the source. Like-named read-outs stand apart in the source and are kept apart here.

B1: NuhuTac (antibody, V domains shown)
VH: EVQLVQSGAEVKKPGASVKVSCKASGYTFTSYRMHWVRQAPGQGLEWIGYINPSTGYTEYNQKFKDKATMTADKSISTAYMELSSLRSEDTAVYYCARGGGVFDYWGQGTLVTVSS
VL: EIVLTQSPATLSLSPGERATLTCSASSSISYMHWFQQKPGQAPRLLIYTTSNLASGIPARFSGSGSGTDYTLTISSLEPEDFAVYYCHQRSTYPLTFGQGTKVEIK
notes: rehumanization of mouse anti-Tac on frameworks R3.5H5G (VH) and ka3d1 (VL); also called rehumanized anti-Tac; rehumanized antibody
The EC50 is the concentration at which the effect is half-maximal. Turning to B1, the EC50 was determined as 0.71 µg/mL in test [1] and 0.49 µg/mL in test [2].

B2: DAC I48M (antibody, IgG1, name in Kabat numbering, V domains shown)
VH: B1 VH with E1Q, A16S, I48M, M70I, K74E, I76T, S77N
VL: DIQMTQSPSTLSASVGDRVTITCSASSSISYMHWYQQKPGKAPKLLIYTTSNLASGVPARFSGSGSGTEFTLTISSLQPDDFATYYCHQRSTYPLTFGQGTKVEVK
notes: E.HAT variant, IgG1/kappa
One may read the Kd as a measure of binding affinity in units of concentration. As for B2, the Kd in test [3] came to 0.375 nM; in test [4], 0.357 nM; in test [5], 0.371 nM.

B3: DAC I48V (antibody, IgG1, name in Kabat numbering, V domains shown)
VH: B1 VH with E1Q, A16S, I48V, M70I, K74E, I76T, S77N
VL: B2 VL
notes: E.HAT variant, IgG1/kappa
The koff is the first-order rate constant of dissociation. A word on the kon: it is the second-order rate constant of association. In the case of B3, in test [6], the “Relative % KD” value is 100%. Moreover, in [3], the Kd was found to be 0.493 nM, the koff is 0.000183 s⁻¹ and the kon amounted to 371000 M⁻¹ s⁻¹. Further, in test [7], the “Relative % Potency” value is 109%.

B4: daclizumab variant S79 (antibody, IgG1, name in Kabat numbering, V domains shown)
VH: B1 VH with E1Q, A16S, M70I, I76T, S77N
VL: B2 VL
notes: IgG1; Kabat positions; also called E73K
For the molecule B4, the “ELISA (wt = 1)” value in [8] was 1.5 fold (wt = 1). The equilibrium dissociation constant (Kd) in test [9] amounted to 0.388 nM.

B5: DAC I48L (antibody, IgG1, name in Kabat numbering, V domains shown)
VH: B1 VH with E1Q, A16S, I48L, M70I, K74E, I76T, S77N
VL: B2 VL
notes: E.HAT variant, IgG1/kappa
For B5, the “Relative % KD” value in test [6] is 83%. In addition, in [3], the Kd amounted to 0.597 nM, the koff was 0.000222 s⁻¹ and the kon came to 372000 M⁻¹ s⁻¹. The “Relative % Potency” value in test [7] worked out at 132%.

For the origin of these results see patent US20200308290A1 (AbbVie / Abbott, published 2020).
